# Source: patent publication US20250092127A1 (Regeneron, published 2025)
# T1: mouse IL-4R (mouse, UniProt P16382 26-233, limits assumed)
# T1 sequence (looked up): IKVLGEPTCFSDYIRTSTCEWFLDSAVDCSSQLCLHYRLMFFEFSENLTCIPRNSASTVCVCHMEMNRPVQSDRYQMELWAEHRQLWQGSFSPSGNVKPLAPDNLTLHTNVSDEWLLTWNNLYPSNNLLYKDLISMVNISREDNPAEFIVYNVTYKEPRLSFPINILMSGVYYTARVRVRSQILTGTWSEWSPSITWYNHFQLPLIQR
# B1: REGN1103 (antibody, V domains shown)
# VH: EVQLQQSGPELVKPGASVRMSCKASGYTFTDYNIHWVKQSHGKSLEWIGYIYPNNGDNGYNQKFRGKATLTVDKSSSTAYMELRSLTSDDSAVYYCARGRLRYFDVWGTGTTVTVSS
# VL: NIVLTQSPASLAVSLGQRATISCRASESVDNYGHSFMHWYQQKPGQPPKLLIYLASNLESGVPARFSGSGSRTDFTLTLDPVEADDAATYYCQQYNEDPPTFGSGTKLEIK
# Target: T1, mouse IL-4R
# Experiment: cell-based or functional assay
binder,measurement,value
B1,IC50 of inhibition of IL-4-dependent proliferation of cell lines,1.9 nM
same,IC50 of inhibition of IL-13-dependent proliferation of cell lines,0.011 nM
